Data from the nanobody polyreactivity screen of Harvey et al. (2022).

Assay: yeast display, Sf9 membrane polyspecificity reagent, FACS + sequencing; frameworks hold sequencing errors
Summary of the method: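 Using colony PCR, genes from sorted yeast display clones were amplified, then sequenced on MiSeq at 2 × 250 and filtered by CDR length. The clones had been stained with 10% biotinylated, detergent-solubilized Sf9 membrane reagent for 1 hour at 4 °C and sorted by FACS into low and high (top ~1%) gates on anti-HA and streptavidin fluorescence. Polyreactivity labels come from the gate of origin.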

Row | Sequence | polyreactivity (PSR sort gate)
1 | QVQLVESGGGLVQAGGSLRLSCAASGGIFLYYAMGWYSQAPGKVRELVAAISSRGGSTYYAHSVKGRYTISRDNAKNTVYLQMNSLKPEDTAVYYCAAESGYYRRTGIFYSWGQGTHVTVSS | high polyreactivity
2 | QVQLVESGGGLVQAGGSLRLSCAASGSTFGTNVMGWYRQAPGKERELVAAISGRGGRTYYADSVKGRFTISRDNAKNTVYLQMNSLKPEDTAVYYCAAPRYYSREYDYWGQGTQVTVSS | high polyreactivity
3 | QVQLVESGGGLVQAGGSLRLSCAASGSILAYNAMGWYRQAPGKERELVASISKSGSSTYADSVKGRFTISRDNAKNTVYLQMNSLNPEDTAVYYCNARYYFSYYAFDYWGQGTQVTVSS | low polyreactivity
4 | QVHLVESGGGLVQAGGSLRLSCAASGSILGSNAMGWYRQAPGKERELVAAISSGGSTDYADSVKVRFTISRDNAKNTVYLQMYCLKPEDTAVYYCAAGFIYHYGLYKIYDYYYWGQGTQVTVSS | low polyreactivity
5 | QVQLVESGGGLVQAGGSLRLSCAASGSTFTDYAMGWYRQAPGKERELVAAIDSGGITNYADSVKGRFTISRDNAKNTVYLQMNSLKPEDTAVYYCAVEGEYLTPSGRYRLDYWGQGTQVTVSS | low polyreactivity
6 | QVQLVESGGGLVQAGGSLRLSCAASGSILYYYAMGWYRQAPGKERELVAAISSGGSTYYADSVKGRFTISRDNAKNTVYLQMNSLKPEDTAVYYCAARRDNPWAKAPRYKMYYWGQGTQVTVSS | high polyreactivity
7 | QVHLVESGGGLVQAGRSLRFSCAASGSIFGVNTMGWYRQAPGKERELDAGISSSGSSTYYADSVKGRFTISRDNAKNTVYLQMNSLKPEDTAVYDCAVRPRYYSTNMDSWGQGTQVTVSS | low polyreactivity
8 | QVQLVESGGGLVQAGGSLRLSCAASGRTFYRYAMGWYRQAPGKERELVAAISTSGSTTYADSVKGRFTISRDNAKNTVYLQMISLKPEDTAVYYCNAVYYYRPDWRQSNLSQYGYWGQGTQVTVSS | high polyreactivity
9 | QVQLVESGGGLVQAGGSLRLSCAASGSTFRFNAMGWYRQAPGKERELVAAITSTGSTYYADSVKGRFTISRDNAKNTVYLQMNSLKPEDTADYYCAATYPRYRATPRYYSWGQGTQVTVSS | high polyreactivity
10 | QVQLVESGGGLVQAGGSLRLSCAASGRISGLYAMGWSRQAPGKEWELVADSTYYADSVKGRFTISRDNAKNTVYLQMNSLKEEDTAVYYCAAVGGGTSTYSGDYWGQGTQVTVSS | high polyreactivity
11 | QVQLVESGGGLVQAGGSLRLSCAASGRIFYLKVMGWYRQEPGKERELVAAITRRDVTTYADSVKGRFTISRDNAKNTVYLQMNSLKPEDTAVYYCNADSPSLSGDYWGQGTQVTVSS | low polyreactivity
12 | QVQLVESGGGLVQAGGSLRLSCAASGIIFGRYDMGWYRQAPGKERELVAAITWSGGTTYYADSVKGRFTISRDNAKNTVYLQMNSLKPADTAVYYCNAVGRYSEDGYWGQGTQVTVSS | high polyreactivity
13 | QVQLVESGGGLVQAGGSLRVSCAASGYTIKYYAMGWYRQAPGKERELVAAISKDGGSTYYADSVKGRFTISRDNAKNTVYLQMNSLKPEDTAVYYCAAKSNVRYGWREFYWGQGTQVTVSS | high polyreactivity
14 | QVQLVESGGGLVQAGGSLRLSCAASGSIFSYYTMGWYRQAPGKERELVAAITRGGRTSYADSVKGRFTISRDNAKNTVYLQMNSLKPEDTAVYYCAADYWYFTHQLSTYGDNYWGQGTQVTVSS | low polyreactivity
15 | QVQLVESGGVLVQAGGSLRLSCAASGNAMGWYRQAPGKERELVAAITRRGGSTYYADSVKGRFTISRDNAKNTVYLQINSLIPEDTAVYYCAADNPSYNLWYGYWGQGTQVTVSS | low polyreactivity
16 | QVQLVESGGGLVQAGGSLRLSCAASGRTSIGNAMGWYRQAPGKERELVASISWSGGSTYYADSVKGRFTISRDNAKNTVYLQMNSLKPEDTAVYYCAKTAYFLVFNEHLHKKRYDSWGLGTQVTVSS | low polyreactivity
17 | QVQLVASGVGLVQAVGSLRLSCAASGITFQYYTMGWYRQAPGKERELVAAINWSGGSTYYADSVKGRFTISRDNAKNTVYLQMNSLKPEDTAVYYCNAVRFVEHDYWGQGTQVTVSS | high polyreactivity
18 | QVQLVESGGGLVQAGGSLRLSCAASGSIFGFYAMGWDRQAPGKERELVAAIRWRDGRTYYADSVKGRFTISRDNAKNTVYLQMNSLKPEDTAVYYCAAGTPWAYDYWGQGTQVTVSS | high polyreactivity
19 | QVQLVESGGGLVQAGGSLRLSCASSGFIFFYYTKGWYRQAPGKERELVAAISTGGSTYYADSVKGRFTISRDNAKNTVYLQMNSLKPEDTAVYYCAALYWYEYTYLEYDYWGQGTQVTVSS | high polyreactivity
20 | QVQLLESGGGLVQAGGTLRLSCAASGRTFYVNAMGWYRQAPGKERELVAAIRRGGSPNYADSVKGRFTISRDNEQNTVYLQMNSLKPEDTAVFYCNASPCGRKQYISPYDYRGQGTQVTVSS | low polyreactivity
21 | QVQLVESGGGLVQAGGSLRLSCASSGRNFQKYAMGWYRQAPGKERELVAAISSGDSTYADSVKGRFTISRDNAKNTVYFQMNSLKPEDTAVYYCAVDLYDPWWYSYIGEYEYWGQGTQVTVSS | low polyreactivity
22 | QVQLVESGGGLVQAGGSLRLSSAASGRTLVNYAMGCYRQAPGKERELVAAISYSGGSTYYADSVKGRFTISRDYAKNTVYLQMNSLKPEDTAVYYCAAYYYQRYDYWGQGTQVTVSS | high polyreactivity
